# Laboratory results as given in US20070167369A1, “Novel use of isolated polypeptide comprising four FAS-1 domains, EM1 domain and RGD motif” (KYUNGPOOK NATIONAL UNIVERSITY INDUSTRY-ACADEMIC COOPERATION …, priority 2004, published 2007).
# B1: fas-1 domain: recombinant protein containing the fourth fas-1 domain of human βig-h3 (SEQ ID NO: 64) (protein, listed as Homo sapiens)
# chain: MGTVMDVLKGDNRFSMLVAAIQSAGLTETLNREGVYTVFAPTNEAFRALPPRERSRLLGDAKELANILKYHIGDEILVSGGIGALVRLKSLQGDKLEVSLKNNVVSVNKEPVAEPDIMATNGVVHVITNVL
# Legend:
# HUVECs [1] = experiment: Endothelial cell proliferation, MTT (Example 6); format: cell-based, human; conditions: 48 hours
# Experimental: HUVECs were suspended in medium at a density of 3×10^4 cells/ml, and 0.1 ml of the cell suspension was added to each well of 96-well plate and incubated at 37° C. overnight. The cells were washed with PBS buffer, and then incubated at 37° C. for 24 hours in serum-free medium. Thereafter, 0.2% FBS-containing medium containing the indicated concentrations of the fas-1 domain (βig-h3 D-IV) prepared in Example 1 was added to each well of the plate and incubated at 37° C. for 48 hours. A control was added with 2% BSA instead of the fas-1 domain. 50 μl of 0.5 mg/ml thiazolyl blue (MTT; Sigma) solution was added to each well, and allowed to react at 37° C. for 4 hours. After the reaction, the medium was removed, and each well was added with DMSO and left to stand at room temperature for a few minutes. Thereafter, the absorbance was measured at 570 nm in a Bio-Rad model 550 microplate reader.
# HUVECs [2] = experiment: Transwell migration of endothelial cells toward βig-h3 (Example 4-2); format: cell-based, human
# Experimental: The present inventors tested whether the fas-1 domain has the activity to inhibit the migration of endothelial cells (Nam, J. O. et al., J. Biol. Chem., 278:25902-25909, 2003). Cell migration assay was performed in a transwell plate (8 μm pore size, Costar, Cambridge, Mass.). The undersurface of the membrane was coated with the recombinant βig-h3 His-1-b (10 μg/ml) protein prepared in Example 1, at 4° C., and then, blocked for 1 hour at room temperature with PBS buffer containing 2% BSA. Meanwhile, HUVECs were added with the fas-1 domain (βig-h3 D-IV) prepared in Example 1, and preincubated at 37° C. for 30 minutes. A control was added with 2% BSA. Then, the HUVECs preincubated with the fas-1 domain were suspended in medium at a density of 3×10^5 cells/ml, and 0.1 ml of the cell suspension was added to the upper compartment of the filter. The cells were allowed to migrate at 37° C. for 6-8 hours.
# Migration was terminated by removing the cells from the upper compartment of the filter with a cotton swab. The filters were fixed with 8% glutaraldehyde and stained with crystal violet. The extent of cell migration was determined by light microscope, and within each well, cell counting was done in nine randomly selected fields HPF (Microscopic high power fields, x200).
# caspase-3 = experiment: Caspase-3 activity in HUVECs (Example 7-2); format: cell-based, human; conditions: control (PBS) at 24 hours about 250 AU
# Experimental: With respect to the induction of endothelial cell apoptosis (active cell death) by the fas-1 domain, which had been confirmed in Example 7-1 above, the present inventors measured the activity of caspase-3, which is activated when apoptosis occurs, in the cells treated with the fas-1 domain.
# HUVECs were spread onto a 100-mm plate (10 ml culture solution) with M199 medium containing 10% FBS, followed by incubation in a 37° C. incubator for 12 hours. After the incubation, the medium was removed from the plate, the cells were added with fresh medium containing 0.1% FBS and further incubated for 24 hours. The cell-containing medium was treated with 5 μM or 20 μM of the fas-1 domain (βig-h3 D-IV) prepared in Example 1. A control was treated with PBS buffer. At 12 hours and 24 hours after the treatment, the cells were harvested. The caspase-3 activity of the cells was measured with an EnzCheck Caspase-3 Assay Kit(#2) (Molecular Probe Co., Eugene, Oreg., USA). Moreover, to verify that measured values are attributed to caspase-3 activity, each of the samples was treated with DEVD-CHO (Molecular Probe Co., Eugene, Oreg., USA) as a caspase-3-specific inhibitor. The control was treated with DMSO.
# melanoma cells (B16F10) = experiment: Apoptosis by annexin V staining/FACS, melanoma cells (Example 7-1); format: cell-based, murine; conditions: 48 hours
# Experimental: Annexin V is a protein binding to calcium-dependent phospholipid, and known to have a strong affinity for phosphatidylserine such that apoptosis can be assayed. For this reason, the present inventors performed a test using an annexin V staining kit (Santa Cruz Biotechnology Inc.).
# Each of human umbilical vein endothelial cells (HUVECs) and melanoma cells (B16F10) was suspended in medium at a density of 5×10^5 cells/ml, added to each well of […] and incubated at 37° C. overnight. On the next day, the cells were washed one time with PBS buffer, then added with serum-free medium and incubated at 37° C. for 24 hours. 0.2% FBS-containing fresh medium was treated with the fas-1 domain (βig-h3 D-IV) prepared in Example 1, at various concentrations, then added to each well of the plate and incubated at 37° C. for 48 hours. A negative control was added with PBS, a positive control was incubated with TNF-α or Vitamin C, which are known to induce the apoptosis of endothelial cells and melanoma cells. FITC (fluorescein isothiocyanate)-conjugated annexin V antibodies were added and allowed to react at 4° C. for one hour. After completion of the reaction, unbound annexin V antibodies were removed with PBS buffer, and the apoptosis of the cells was analyzed using FACS (BD Biosciences).
molecule,measurement,setting,value
B1,inhibition of proliferation of endothelial cells,HUVECs [1],inhibited by fas-1 domain in a dose-dependent manner
same,inhibitory effect of endothelial cell migration compared with YH motif-containing peptide fragment of 18 amino acids,"HUVECs [2]; 20 μM fas-1 domain vs 1,000 μM YH peptide",higher
same,inhibition of migration of endothelial cells promoted by βig-h3,HUVECs [2]; transwell coated with βig-h3 His-1-b 10 μg/ml,inhibited by the fas-1 domain in a dose-dependent manner
same,caspase-3 activity,caspase-3; 5 μM,300 AU
same,caspase-3 activity,caspase-3; 20 μM,600 AU
same,induction of apoptosis of B16F10 cells,melanoma cells (B16F10),did not induce the apoptosis of B16F10 cells
